Biological target: T1, caspase 9 (UniProt P55211 1-416)
T1 sequence: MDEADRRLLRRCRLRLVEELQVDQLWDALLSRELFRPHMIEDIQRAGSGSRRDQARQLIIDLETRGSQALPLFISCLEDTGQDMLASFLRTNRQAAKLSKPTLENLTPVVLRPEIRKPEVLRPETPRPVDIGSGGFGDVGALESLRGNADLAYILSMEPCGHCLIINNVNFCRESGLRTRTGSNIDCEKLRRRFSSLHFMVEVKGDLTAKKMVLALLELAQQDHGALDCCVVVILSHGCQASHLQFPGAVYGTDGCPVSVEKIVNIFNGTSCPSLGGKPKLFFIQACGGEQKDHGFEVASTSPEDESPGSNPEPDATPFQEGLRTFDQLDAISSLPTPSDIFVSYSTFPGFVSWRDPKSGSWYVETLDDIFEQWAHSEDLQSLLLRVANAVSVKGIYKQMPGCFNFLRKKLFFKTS
Assay: pull-down: pUL37Smyc held by anti-myc antibody on protein G agarose beads, 35S-labelled in vitro translated protein, SDS-PAGE

B1: pUL37Smyc (HCMV pUL37S fused at its C-terminus with a c-myc-epitope tag) (other)
chain: MSPVYVNLLGSVGLLAFWYFSYRWIQRKRLEDPLPPWLRKKKACALTRRSRHRLRRQHGVIDGENSETERSVDLVAALLAEAGEESVTEDTEREDTEEEREDEEEENEARTPEVNPIDAEGLSGLAREACEALKKALRRHRFLWQRRQRARMLQHNGPQQSHQ
notes: range 410-419; also called pUL37x1; pUL37x1myc
binding result: no binding

Source: patent publication US6902885 (APOPTOSIS TECHNOLOGY, dated 2005)
